Test results as given in patent publication US20100166772A1, “ANTIGEN-BINDING PROTEINS TARGETING S. AUREUS ORF0657n” (priority 2007, published 2010).

Columns and labels:
S. aureus = test: Opsonophagocytosis activity (OPA) assay with HL60_DMF cells; format: cell-based; conditions: FIGS. 4 and 5
From the text: An opsonophagocytosis activity (OPA) assay was developed to evaluate an antibody's ability to opsonophagocytose. The assay measures the ability of antibodies to bind and fix complement (C′) to the bacterial surface, which results in an increase in the level of phagocytosis of these bacteria by granulocytic effecter cells.
ORF0657n is an iron regulated protein on the surface of S. aureus that appears to be involved in heme/Fe acquisition. […] For this assay the strain is iron starved to increase the expression of ORF0657n. This strain also lacks the ability to produce Protein A. Protein A can bind to the Fc portion of any IgG and the presence of this non-specifically bound antibody could interfere in the OPA reaction.
HL60 cells were exposed to dimethylformamide (DMF) for five to six days to induce the cells to differentiate towards a more granulocytic phenotype. Next, 2% C′-sufficient gnotobiotic pig serum was added to the antibody bound cells. Finally, the antibody and C′ exposed cells were then labeled with the fluorescent chemical 5′, 6′-FAM-SE.
After incubation of opsonized, fluorescently-labeled bacteria and unlabeled HL60_DMF cells, the level of phagocytosis was determined by measuring the percentage of HL60_DMF cells containing labeled bacteria by flow cytometry. […]

ORF0657n = conditions: Luminex binding assay
Method: Construction of ORF0657n-bead—9.4×10^6 Radix maleimide microspheres (Georgetown, Tex.) were coupled to 750 μg ORF0657n-Se (ORF0657n containing carboxyl terminal cysteine group) at room temperature for 2 hours. Beads were washed 3 times with 1 ml PBS and then quenched with 1 M N-acetyl-L-cysteine (Sigma) for 2 hours at room temperature. Microspheres were washed 3× in PBS. Beads were enumerated and re-suspended at a final concentration of 500 microspheres/μl.
Detection of Competition between CAT ScFvs and CAT mAbs—CAT scFvs were individually competed against the CAT antibodies in the Luminex cLIA assay. ScFvs were diluted 1:4, 1:8, 1:16 and 1:32 in PBS-TBN (0.05% Tween 20, 1% BSA and 0.05% sodium azide) and incubated with 5000 ORF0657n-coupled microspheres in a Multiscreen filter plate (Millipore) for 1 hour, 15 minutes at room temperature. The beads were then washed 3× with PBS with 0.05% Tween 20 (PBS/Tween20). The individual antibodies were diluted in PBS-TBN to a final concentration of 2 μg/ml and added to separate plates. […] Microspheres were re-suspended in PBS/Tween20 and the median fluorescent signal was read using a Bio-Plex luminometer (BioRad). ScFvs were considered competitive if the median fluorescent signal was reduced by at least 30% over the signal detected for non-competitive scFvs for at least two dilutions.

B1: mAb CS-D10: IgG1 antibody, light chain variable region SEQ ID NO: 5, heavy chain variable region SEQ ID NO: 6, lambda (antibody, V domains shown)
VH: QVQLQESGPGLVKPSETLSLTCTVSGGSIRSSSYYWGWFRQTPGKGLEWLGNVFFSGSAYYNPSLKSRVTISIDTSENQSSLKLTSVTAADTAVYYCARPQAYSHDSSGHSPFDLWGRGTMVTVSS
VL: QAVLTQPSSVSGAPGQRVTISCTGGSSNIGAGYDVHWYQQIPGTAPKLLIYGNSNRPSGVPDRFSGSKSGTSASLAITGLQAEDEADYYCQSYDSSLNGPVVFGGGTKVTVLG
modifications: mAb CS-C10 heavy chain variable region; mAb CS-C10 light chain variable region
opsonic activity compared to isotype control (S. aureus): higher opsonic activity compared to their IgG1 isotype control | mAbs compete for binding to the same epitope (ORF0657n): compete for binding to the same epitope
